Changes are numbered by the printed parent chain.

The labels stand for the following.
B1: LY93V (scFv)
scFv: QSALTQPRSVSGSPGQSVTISCAGTSSDVGSENYVSWYQQHPGKAPKLMIYQVNKRASGVPDRFSGSKSGNTASLTISGLQAEDEADYYCASVRSSDHNIVFGGGTKLTVLGGGGSGGGGSGGGGSEVQLVESGGGLVQPGGSLRLSCAASGFTFSSYAMSWVRQAPGKGLEWVSTINSGTGSPYYADSVKGRFTISRDNSKNTLYLQMNSLRAEDTAVYYCAKNFFDGSWFLGPPAMDYWGQGTLVTVSSHHHHHH
notes: AS170036 VL1VH1 scFv mutein
B2: LY93W (scFv)
scFv: B1 scFv with V93W
notes: AS170036 VL1VH1 scFv mutein
B3: AS170036 VL1VH1-VHG56F (scFv)
scFv: B1 scFv with V93Y, G182F
B4: AS170036 VL1VH1-VLH98A (scFv)
scFv: B1 scFv with V93Y, H98A
B5: AS170036 VL1VH1-VHS57Q (scFv)
scFv: B1 scFv with V93Y, S183Q
B6: AS170036 VL1VH1-VLH98F (scFv)
scFv: B1 scFv with V93Y, H98F
B7: AS170036 VL1VH1-VLH98T (scFv)
scFv: B1 scFv with V93Y, H98T
B8: AS170036 VL1VH1-VHS57K (scFv)
scFv: B1 scFv with V93Y, S183K
B9: AS170036 VL1VH1-VHG56Y (scFv)
scFv: B1 scFv with V93Y, G182Y
B10: AS170036 VL1VH1-VHS57M (scFv)
scFv: B1 scFv with V93Y, S183M
B11: AS170036 VL1VH1-VLH98V (scFv)
scFv: B1 scFv with V93Y, H98V
B12: AS170036 VL1VH1-VLH98P (scFv)
scFv: B1 scFv with V93Y, H98P
B13: AS170036 VL1VH1-VHG108M (scFv)
scFv: B1 scFv with V93Y, G234M
B14: AS170036 VL1VH1-VHG108E (scFv)
scFv: B1 scFv with V93Y, G234E
B15: AS170036 VL1VH1-VHS57R (scFv)
scFv: B1 scFv with V93Y, S183R
B16: AS170036 VL1VH1-VLH98I (scFv)
scFv: B1 scFv with V93Y, H98I
B17: AS170036 VL1VH1-VHG56N (scFv)
scFv: B1 scFv with V93Y, G182N
B18: AS170036 VL1VH1-VLE32W (scFv)
scFv: B1 scFv with E32W, V93Y
B19: AS170036 VL1VH1-VHG108S (scFv)
scFv: B1 scFv with V93Y, G234S
B20: AS170036 VL1VH1-VHS57H (scFv)
scFv: B1 scFv with V93Y, S183H
B21: AS170036 VL1VH1-VHG108A (scFv)
scFv: B1 scFv with V93Y, G234A
B22: AS170036 VL1VH1-VLH98Q (scFv)
scFv: B1 scFv with V93Y, H98Q
B23: AS170036 VL1VH1-VHG108N (scFv)
scFv: B1 scFv with V93Y, G234N
B24: AS170036 VL1VH1-VHG108D (scFv)
scFv: B1 scFv with V93Y, G234D

One assay deals with T1, AFP158/HLA-A*02:01 complex (human).
T1 construct: flowed over the chip in SPR; also called AFP158 pro
The assay can be described thus: SPR, scFv captured, pMHC in flow.
Protocol: (§1) The experiment was carried out as follows. The crude scFv protein were captured onto the sensorchip. Different concentrations (320, 160, 40 nM) of AFP158/HLA-A*02:01 complex flowed over the sensorchip surface, and were allowed to bind the antibody fragment for 100 s followed by injection of the running buffer to allow dissociation of the complex. On-rate (kd) and off-rate (kd) were calculated based on association and dissociation curve, and were used to estimate the equilibrium dissociation constant (KD).
By Kd is commonly meant a measure of binding affinity in units of concentration. Read a low Kd as higher affinity. The molecule B1 returned a Kd of 450 nM.
On the same count and under the same terms, then B2, with 240 nM.

Another assay deals with T2, AFP158/HLA-A*02:01 complex (human).
T2 construct: flowed as analyte in SPR
Kind of assay: SPR, fold vs AS170036 VL1VH1. In general terms: Surface plasmon resonance follows binding to a sensor surface in real time, without labels.
Protocol: as §1
In turn, B3 yielded an Affinity increase of 2.3 fold.
On the same count and under the same terms, then B4, with 2.3 fold; and B5, with 2.4 fold; and B6, with 3.3 fold.
B7 registered an Affinity increase of 2.9 fold.
In turn, B8 yielded an Affinity increase of 4.4 fold.
B9: the Affinity increase is 6.6 fold.
The same measure, in the same setting: then B10, with 2.7 fold; and B11, with 3.2 fold.
B12 registered an Affinity increase of 3.5 fold.
In turn, B13 yielded an Affinity increase of 4.7 fold.
Consider B14, for which the Affinity increase was determined as 4.1 fold.
The molecule B15 came in with an Affinity increase of 2.8 fold.
Take B16: the Affinity increase was found to be 3.1 fold.
Molecule B17 yielded an Affinity increase of 2.5 fold.
On the same count and under the same terms, then B18, with 2.4 fold; and B19, with 2.8 fold; and B20, with 6.9 fold.
The same measure, in the same setting: then B21, with 5.5 fold; and B22, with 3.3 fold.
In the case of B23, the Affinity increase is 2 fold.
In turn, B24 came in with an Affinity increase of 5.5 fold.

The target in the next assay is T2, AFP158/HLA-A*02:01 complex. Kind of assay: SPR, crude scFv captured, pMHC analyte.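 Further: Peptide-MHC complex at several concentrations passed over captured scFv, association then buffer-driven dissociation, on- and off-rates fitted from the curves and KD estimated from them.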
Protocol: as §1
As a reminder, the koff is the first-order rate constant of dissociation. A lower koff goes with slow dissociation. The term kon denotes the second-order rate constant of association. The molecule B3 yielded a Kd of 98 nM, a koff of 0.022 s⁻¹ and a kon of 230000 M⁻¹ s⁻¹.
For B4 the same measures were 110 nM, 0.027 s⁻¹ and 260000 M⁻¹ s⁻¹.
For B5, the Kd was determined as 100 nM, the koff was found to be 0.022 s⁻¹ and the on-rate constant (kon) was 210000 M⁻¹ s⁻¹.
The corresponding values for B6 are 74 nM, 0.033 s⁻¹ and 450000 M⁻¹ s⁻¹.
Regarding B7, the Kd was found to be 84 nM, the koff came to 0.025 s⁻¹ and the kon is 290000 M⁻¹ s⁻¹.
As for B8, the Kd stood at 56 nM, the koff was 0.0081 s⁻¹ and the on-rate constant (kon) is 150000 M⁻¹ s⁻¹.
Turning to B9, the Kd was determined as 35 nM, the koff is 0.006 s⁻¹ and the kon worked out at 170000 M⁻¹ s⁻¹.
Take B10: the Kd was 90 nM, the koff was determined as 0.025 s⁻¹ and the kon was 280000 M⁻¹ s⁻¹.
For the molecule B11, the affinity, expressed as Kd, was 78 nM; the koff worked out at 0.018 s⁻¹; the kon amounted to 230000 M⁻¹ s⁻¹.
The corresponding values for B12 are 70 nM, 0.017 s⁻¹ and 240000 M⁻¹ s⁻¹.
B13: the Kd was 58 nM, the koff amounted to 0.013 s⁻¹ and the kon worked out at 220000 M⁻¹ s⁻¹.
For B14 the same measures were 56 nM, 0.02 s⁻¹ and 350000 M⁻¹ s⁻¹.
For B15 the same measures were 88 nM, 0.017 s⁻¹ and 200000 M⁻¹ s⁻¹.
The corresponding values for B16 are 78 nM, 0.018 s⁻¹ and 230000 M⁻¹ s⁻¹.
B17 showed a dissociation constant (Kd) of 92 nM, a koff of 0.025 s⁻¹ and a kon of 270000 M⁻¹ s⁻¹.
The corresponding values for B18 are 100 nM, 0.016 s⁻¹ and 150000 M⁻¹ s⁻¹.
The corresponding values for B19 are 96 nM, 0.026 s⁻¹ and 270000 M⁻¹ s⁻¹.
The corresponding values for B20 are 35 nM, 0.0061 s⁻¹ and 170000 M⁻¹ s⁻¹.
B21: the Kd came to 42 nM, the koff amounted to 0.012 s⁻¹ and the kon turned out to be 290000 M⁻¹ s⁻¹.
For B22 the same measures were 75 nM, 0.016 s⁻¹ and 220000 M⁻¹ s⁻¹.
The corresponding values for B23 are 140 nM, 0.045 s⁻¹ and 330000 M⁻¹ s⁻¹.
In turn, B24 gave a Kd of 42 nM, a koff of 0.015 s⁻¹ and a kon of 370000 M⁻¹ s⁻¹.

For a further assay, the target named is T1, AFP158/HLA-A*02:01 complex. The assay can be described thus: SPR, KD ratio to AS170036 VL1VH1.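 Further: crude scFv captured on a sensor chip, peptide–HLA complex passed over at several concentrations, association then buffer dissociation, KD derived from on- and off-rates.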
Protocol: as §1
B1: the Affinity increase came out at 0.5 fold.
On the same count and under the same terms, then B2, with 1 fold.

Another assay has as its target T1, AFP158/HLA-A*02:01 complex. The assay can be described thus: SPR, scFv captured, pMHC in flow.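 Further: complex injected at several concentrations over crude scFv, association then running-buffer dissociation, KD estimated from kinetic on- and off-rate constants.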 The source holds these as a separate data set.
B1 had a Kd of 450 nM.
B2 came in with a Kd of 240 nM.

The target of another assay is T1, AFP158/HLA-A*02:01 complex. Kind of assay: SPR, KD ratio to AS170036 VL1VH1.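 Further: crude scFv captured on a sensor chip, peptide–HLA complex passed over at several concentrations, association then buffer dissociation, KD derived from on- and off-rates.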 The source holds these as a separate data set.
Protocol: as §1
Turning to B1, the Affinity increase came to 0.5 fold.
In the case of B2, the Affinity increase is 1 fold.
